Tests used:
Experiment in all cases: cell-based or functional assay
[1] = target: human CXCR4 (on U87 human astroglioma cells stably transduced with human CXCR4) (human) (UniProt P61073)
[2] = target: HIV-1 89.6 Env glycan mutant N7 (N197Q) (HIV-1 isolate 89.6) (UniProt Q73372)
[3] = target: HIV-1 89.6 Env glycan mutant NV3 (N301Q) (HIV-1 isolate 89.6) (UniProt Q73372)
[4] = target: HIV-1 89.6 Env triple glycan mutant N67V3 (N6, N7 and NV3: N187Q, N197Q, N301Q) (HIV-1 isolate 89.6) (UniProt Q73372)

Chain of UniProt P61073 (P61073 whole entry): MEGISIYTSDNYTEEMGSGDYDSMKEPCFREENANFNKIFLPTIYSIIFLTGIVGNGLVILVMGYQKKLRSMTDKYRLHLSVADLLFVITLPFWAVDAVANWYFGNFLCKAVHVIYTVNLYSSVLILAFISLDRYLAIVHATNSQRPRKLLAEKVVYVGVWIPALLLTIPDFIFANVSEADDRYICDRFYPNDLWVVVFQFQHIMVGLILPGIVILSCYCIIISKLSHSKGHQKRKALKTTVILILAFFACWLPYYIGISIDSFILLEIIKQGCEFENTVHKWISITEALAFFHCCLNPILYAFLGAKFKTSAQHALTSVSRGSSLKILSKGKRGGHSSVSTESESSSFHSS

**Q.** How did the relative infectivity of pseudotyped virus in U87-CXCR4 cells in the absence of CD4 (vs WT virus) [1] turn out when “HIV-1 89.6 Env glycan mutant N7 (N197Q) (from UniProt Q73372 32-853)” was run?
**A.** The relative infectivity of pseudotyped virus in U87-CXCR4 cells in the absence of CD4 (vs WT virus) was 10 fold.

**Q.** How did the increase in infectivity in CD4-negative cells as compared to WT Env [1] turn out when “HIV-1 89.6 Env glycan mutant NV3 (N301Q) (from UniProt Q73372 32-853)” was run?
**A.** Its increase in infectivity in CD4-negative cells as compared to WT Env is 2 to 3 fold.

**Q.** Which results are given for monoclonal antibody 2G12?
**A.** increase in neutralization sensitivity (vs WT) [2]: 3 fold; decrease in neutralization sensitivity (vs WT) [3]: 2 to 3 fold

**Q.** For monoclonal antibody 4E10, which increase in neutralization sensitivity (vs WT) [2] is on record?
**A.** Its increase in neutralization sensitivity (vs WT) is 3 fold.

**Q.** And the increase in neutralization sensitivity (vs WT) [4]?
**A.** Its increase in neutralization sensitivity (vs WT) is 3 fold.

**Q.** For monoclonal antibody 17b, which sensitivity to 17b without sCD4, compared to the WT or the N6 and NV3 mutants in the presence of sCD4 [2] is on record?
**A.** The sensitivity to 17b without sCD4, compared to the WT or the N6 and NV3 mutants in the presence of sCD4 was 30 fold.

**Q.** And the sensitivity to 17b without sCD4, compared to the WT or the N6 and NV3 mutants in the presence of sCD4 [4]?
**A.** The sensitivity to 17b without sCD4, compared to the WT or the N6 and NV3 mutants in the presence of sCD4 was 30 fold.

**Q.** With monoclonal antibody IgG1b12 as the substance, how does the enhancement in neutralization sensitivity compared to wild-type 89.6 [2] read?
**A.** The enhancement in neutralization sensitivity compared to wild-type 89.6 was 60 fold.

**Q.** How did the enhancement in neutralization sensitivity compared to wild-type 89.6 [2] turn out when “recombinant sCD4-Ig (from UniProt P01730 26-204) (Fc fusion)” was run?
**A.** The enhancement in neutralization sensitivity compared to wild-type 89.6 was 50 fold.
